Common to all, as to test: Kinetic parameters of hydrolysis of cephalosporin conjugates
Common to all, as to assay type: biochemical
What all share (conditions): other: compound as substrate of IMP-28; pH 7.2; 25.0 °C

Substrate in data set [1]: [H][C@]12SCC(CSC(C(=O)O)c3ccccc3)=C(C(=O)O)N1C(=O)[C@H]2NC(=O)Cc1ccccc1
Substrate in data set [2]: [H][C@]12SCC(CSCCc3ccccc3)=C(C(=O)O)N1C(=O)[C@H]2NC(=O)Cc1ccccc1
Substrate in data set [3]: [H][C@]12SCC(CSCc3ccccc3)=C(C(=O)O)N1C(=O)[C@H]2NC(=O)Cc1ccccc1
Substrate in data set [4]: [H][C@]12SCC(CS[C@@H](Cc3ccccc3)C(=O)O)=C(C(=O)O)N1C(=O)[C@H]2NC(=O)Cc1ccccc1
Substrate in data set [5]: [H][C@]12SCC(CS[C@H](Cc3ccccc3)C(=O)O)=C(C(=O)O)N1C(=O)[C@H]2NC(=O)Cc1ccccc1

B1: IMP-28 (Klebsiella oxytoca) (protein)
chain: ESLPDLKIERLDEGVYVHTSFEEVNGWGVVPKHGLVVLVNTEAYLIDTPFTAKDTEKLVTWFVGRGYKIKGSISSHFHSDSTGGIEWLNSQSIPTYASELTNELLKKDGKVQAKNSFGGVSYWLVKNKIEVFYPGPGHTPDNVVVWLPENRVLFGGCFVKPYGLGNLGDANLEAWPKSAKLLMSKYGKAKLVVPSHSEVGDASLLKRTLEHAVKGLNESKKPSKPSN
As for B1, the Km in data set [1] came to 129 ± 13 µM; in data set [2], 83.3 ± 16 µM; in data set [3], 20.5 ± 4 µM; in data set [4] it was 175 ± 19 µM; in data set [5], 249 ± 7 µM. Besides, the kcat in data set [1] was determined as 0.386 s⁻¹; in data set [2], 6.12 s⁻¹; in data set [3], 10.8 s⁻¹; in data set [4], 41 s⁻¹; in data set [5], 2.83 s⁻¹. In addition, the kcat/Km in data set [1] is 3000 M⁻¹ s⁻¹; in data set [2], 73000 M⁻¹ s⁻¹; in data set [3], 529000 M⁻¹ s⁻¹; in data set [4] it was 234000 M⁻¹ s⁻¹; in data set [5] it was 11000 M⁻¹ s⁻¹.

One may read the Km as the substrate concentration at which the rate is half of its maximum. What is called kcat is the maximal rate divided by the concentration of active sites. For orientation: kcat/Km means the second-order rate constant that governs catalysis at low substrate concentration.

The record behind these values is article PMC8273888.
